From patent US20100248359A1 (Chugai, published 2010)
Where a chain is given by its changes, count along the chain named. Numbers in names are those of the source.

B1: humanized GC33 H chain ver.k / L chain ver.a (antibody, V domains shown)
VH: QVQLVQSGAEVKKPGASVKVSCKASGYTFTDYEMHWVRQAPGQGLEWMGALDPKTGDTAYSQKFKGRVTLTADKSTSTAYMELSSLTSEDTAVYYCTRFYSYTYWGQGTLVTVSS
VL: DVVMTQSPLSLPVTPGEPASISCRSSQSLVHSNGNTYLHWYLQKPGQSPQLLIYKVSNRFSGVPDRFSGSGSGTDFTLKISRVEAEDVGVYYCSQNTHVPPTFGQGTKLEIK
notes: Parent of the N33 and G34 L chain variants
B2: modified humanized GC33 (H chain ver.k, L chain G34R) (antibody, human IgG1, V domains shown)
VH: B1 VH
VL: B1 VL with G34R
notes: COS7 supernatant; human IgG1/kappa
B3: M1E7 (antibody, human IgG1, kappa, V domains shown)
VH: EVQLQQSGPELVKPGASVKISCKASGYSFTGYYMHWVKQSPEKSLEWIGEINPSTGGTTYNQKFKAKATLTVDKSSSTAYMQLKSLTSEDSAVYYCARRGGLTGTSFFAYWGQGTLVTVSA
VL: DVVMTQTPLSLSVTIGQPASISCKSSQSLLYSNGKTYLNWLQQRPGQAPKHLMYQVSKLDPGIPDRFSGSGSETDFTLKISRVEAEDLGVYYCLQSTYYPLTFGAGTKLELKR
notes: Mouse monoclonal from hybridoma; also called M1E07
B4: M11F1 (antibody, V domains shown)
VH: QVTLKESGPGILQPSQTLSLTCSFSGFSLSIYGMGVGWIRQPSGKGLEWLANIWWNDDKYYNSALKSRLTISKDTSNNQVFLKISSVDTADTATYYCAQIGYFYFDYWGQGTTLTVSS
VL: DVVMTQTPLSLPVSLGDQASISCRSSQSLVHSNGNTYLHWYLQKPGQSPKLLIYKVSNRFSGVPDRFSGSGSGTDFTLKISRVEAEDLGVYFCSQSTHVPWTFGGGTKLEIK
notes: Mouse monoclonal from hybridoma
B5: L9G11 (antibody, V domains shown)
VH: QVQLQQPGAELVKPGASVKLSCKASGYTFTSYWMHWVKQRPGQGLEWIGTIDPSDSETHYNLQFKDTATLTVDKSSSTAYMQLSSLTSEDSAVYYCIRGAFYSSYSYWAWFAYWGQGTLVTVSA
VL: DIVLTQSPTSLAVSLGQSVTISCRASESVEYYGTSLMQWYQQKPGQPPKLLIYGASNVESGVPARFSGSGSGTDFSLNIHPVEEDDIAMYFCQQSRKVPYTFGSGTKLEIK
notes: as for B4
B6: M3B8 (antibody, V domains shown)
VH: QVTLKESGPGILQPSQTLSLTCSFSGFSLSTYGMGVGWIRQPSGMGLEWLANIWWYDAKYYNSDLKSRLTISKDTSNNQVFLKISSVDTSDTATYYCAQMGLAWFAYWGQGTLVTVSA
VL: DIKMTQSPSSMYASLGERVTITCKASQDINNYLSWFQQKPGKSPKTLIYRANRLVDGVPSRFSGSGSGQDYSLTISSLEYEDMGINYCLQCDEFPPWTFGGGTKLEIK
notes: as for B4

Experiments:
[1] = molecular target: T1, soluble form of GPC3 core protein (human, UniProt P51654 25-563); experiment: ELISA on plate coated with soluble GPC3 core protein; antibody from COS7 culture supernatant
T1 construct: not shown: His tag added to the C-terminus

[2] = molecular target: T1, soluble form of GPC3 core protein; experiment: ELISA on plate coated with soluble GPC3 core protein; antibody from COS7 culture supernatant [lower right panel]
[3] = molecular target: T1, soluble form of GPC3 core protein; experiment: ELISA on plate coated with soluble GPC3 core protein
[4] = molecular target: T1, soluble form of GPC3 core protein; experiment: competitive ELISA on coated soluble GPC3 core protein; labelled competitor biotin-M10D2;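 further: Biotin-labelled antibody added as 10 µL at 10 µg/mL for 1 h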
[5] = molecular target: T1, soluble form of GPC3 core protein; experiment: competitive ELISA on coated soluble GPC3 core protein; labelled competitor biotin-M1E7;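 further: Biotin-labelled antibody added as 10 µL at 10 µg/mL for 1 h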
[6] = molecular target: T1, soluble form of GPC3 core protein; experiment: competitive ELISA on coated soluble GPC3 core protein; labelled competitor biotin-M6B1;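 further: Biotin-labelled antibody added as 10 µL at 10 µg/mL for 1 h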
full-length human GPC3 [7] = molecular target: T2, full-length human GPC3 (human, UniProt P51654 25-554); experiment: flow cytometry, antibody at 5 µg/mL, HepG2 cells
T2 construct: On CHO (DXB11) or SK-HEP-1 (SK-03) transfectants; also used here for the GPC3 on the hepatoma lines HepG2 and HuH-7; also called human glypican 3

[8] = molecular target: T1, soluble form of GPC3 core protein; experiment: competitive ELISA on coated soluble GPC3 core protein; labelled competitor biotin-M5B9;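 further: Biotin-labelled antibody added as 10 µL at 10 µg/mL for 1 h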
full-length human GPC3 [9] = molecular target: T2, full-length human GPC3; experiment: flow cytometry, antibody at 5 µg/mL, HuH-7 cells
[10] = molecular target: T3, secreted form of GPC3 in the culture supernatant of HepG2 (human, UniProt P51654 25-358, limits assumed); experiment: immunoprecipitation of the culture supernatant of HepG2, detection of secreted GPC3
T3 construct: also called secretory GPC3; secreted form of GPC3 of 40 kDa

[11] = molecular target: T4, GC-3 (GST fusion of GPC3 Ala524 to Lys563) (human, UniProt P51654 524-563); experiment: Western blotting of GST-fusion proteins, reducing SDS-PAGE
T4 construct: not shown: GST as encoded by pGEX-4T-3 (Amersham), N-terminal to the GPC3 peptide
T4 chain: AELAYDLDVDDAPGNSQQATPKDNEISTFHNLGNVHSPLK

[12] = molecular target: T1, soluble form of GPC3 core protein; experiment: competitive ELISA on coated soluble GPC3 core protein; labelled competitor biotin-M3C11;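 further: Biotin-labelled antibody added as 10 µL at 10 µg/mL for 1 h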
full-length human GPC3 [13] = molecular target: T2, full-length human GPC3; experiment: BIACORE; the form of GPC3 used is not given
[14] = molecular target: T1, soluble form of GPC3 core protein; experiment: competitive ELISA on coated soluble GPC3 core protein; labelled competitor biotin-M11F1;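 further: Biotin-labelled antibody added as 10 µL at 10 µg/mL for 1 h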
full-length human GPC3 [15] = molecular target: T2, full-length human GPC3; experiment: flow cytometry, antibody at 5 µg/mL, CHO cells expressing human GPC3 (column CHO/human GPC3)
[16] = molecular target: T1, soluble form of GPC3 core protein; experiment: competitive ELISA on coated soluble GPC3 core protein; labelled competitor biotin-L9G11;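 further: Biotin-labelled antibody added as 10 µL at 10 µg/mL for 1 h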
[17] = molecular target: T1, soluble form of GPC3 core protein; experiment: competitive ELISA on coated soluble GPC3 core protein; labelled competitor biotin-M18D4;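 further: Biotin-labelled antibody added as 10 µL at 10 µg/mL for 1 h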
[18] = molecular target: T5, C-terminal fragment of 30 kDa of the soluble form of GPC3 core protein (human, UniProt P51654 375-563); experiment: Western blotting of soluble GPC3 core protein after reducing SDS-PAGE
T5 construct: the shorter limit is written; also called C-terminal side; band of about 30 kDa; not shown: His tag at the C-terminus
T5 chain: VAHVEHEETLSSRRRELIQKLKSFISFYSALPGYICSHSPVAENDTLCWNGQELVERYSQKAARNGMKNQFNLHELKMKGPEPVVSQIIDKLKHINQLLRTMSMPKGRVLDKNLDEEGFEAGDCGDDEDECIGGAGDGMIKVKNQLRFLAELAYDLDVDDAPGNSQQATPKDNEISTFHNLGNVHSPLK

[19] = molecular target: T6, GC-1 (GST fusion of GPC3 Ser495 to Lys563) (human, UniProt P51654 495-563); experiment: Western blotting of GST-fusion proteins, reducing SDS-PAGE
T6 construct: Made in E. coli DH5alpha; not shown: GST as encoded by pGEX-4T-3 (Amersham), N-terminal to the GPC3 peptide
T6 sequence: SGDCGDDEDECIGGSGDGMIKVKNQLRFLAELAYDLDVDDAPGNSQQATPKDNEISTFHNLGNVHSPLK

[20] = molecular target: T7, GC-2 (GST fusion of GPC3 Gly510 to Lys563) (human, UniProt P51654 510-563); experiment: as above
T7 construct: not shown: GST as encoded by pGEX-4T-3 (Amersham), N-terminal to the GPC3 peptide
T7 sequence: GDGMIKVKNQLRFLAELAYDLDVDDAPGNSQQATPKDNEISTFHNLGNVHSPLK

T2 sequence (P51654 25-554 limits assumed): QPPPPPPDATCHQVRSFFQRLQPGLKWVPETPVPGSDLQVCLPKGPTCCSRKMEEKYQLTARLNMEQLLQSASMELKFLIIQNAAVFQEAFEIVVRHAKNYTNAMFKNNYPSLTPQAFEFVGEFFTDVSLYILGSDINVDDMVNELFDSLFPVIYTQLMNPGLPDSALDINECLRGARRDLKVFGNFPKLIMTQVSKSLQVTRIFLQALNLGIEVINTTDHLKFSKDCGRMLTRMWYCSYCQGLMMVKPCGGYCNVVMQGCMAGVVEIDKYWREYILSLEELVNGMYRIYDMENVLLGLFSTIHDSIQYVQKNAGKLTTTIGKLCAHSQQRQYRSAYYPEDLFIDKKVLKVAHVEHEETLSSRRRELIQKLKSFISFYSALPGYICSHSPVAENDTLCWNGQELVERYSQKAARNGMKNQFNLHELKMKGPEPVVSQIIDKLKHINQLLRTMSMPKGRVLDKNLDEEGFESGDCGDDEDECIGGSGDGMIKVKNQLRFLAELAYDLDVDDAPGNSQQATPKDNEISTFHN
T3 sequence (P51654 25-358 limits assumed): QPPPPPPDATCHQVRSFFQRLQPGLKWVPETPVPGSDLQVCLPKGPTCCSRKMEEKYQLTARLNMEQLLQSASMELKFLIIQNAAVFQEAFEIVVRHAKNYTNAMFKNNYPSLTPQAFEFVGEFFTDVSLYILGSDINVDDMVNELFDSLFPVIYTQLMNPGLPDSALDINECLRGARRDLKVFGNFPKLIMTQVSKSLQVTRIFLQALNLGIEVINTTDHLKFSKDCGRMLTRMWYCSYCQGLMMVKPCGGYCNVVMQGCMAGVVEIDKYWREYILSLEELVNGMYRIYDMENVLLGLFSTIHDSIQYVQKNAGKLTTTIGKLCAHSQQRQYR

Binder | EC50 [3] | Inhibition of the binding of indicated biotin-Mab to sGPC3 core (%) [4] | Inhibition of the binding of indicated biotin-Mab to sGPC3 core (%) [5] | Inhibition of the binding of indicated biotin-Mab to sGPC3 core (%) [6] | FACS X-mode value of the histogram (full-length human GPC3 [7]) | Inhibition of the binding of indicated biotin-Mab to sGPC3 core (%) [8] | FACS X-mode value of the histogram (full-length human GPC3 [9]) | binding result [10] | binding result [11] | Inhibition of the binding of indicated biotin-Mab to sGPC3 core (%) [12] | Kd (full-length human GPC3 [13]) | koff (full-length human GPC3 [13]) | kon (full-length human GPC3 [13]) | Inhibition of the binding of indicated biotin-Mab to sGPC3 core (%) [14] | FACS X-mode value of the histogram (full-length human GPC3 [15]) | Inhibition of the binding of indicated biotin-Mab to sGPC3 core (%) [16] | Inhibition of the binding of indicated biotin-Mab to sGPC3 core (%) [17] | also measured
B1 |  |  |  |  |  |  |  |  |  |  |  |  |  |  |  |  |  | EC50 (read off the curve) [1]: ~20 ng/mL
B2 |  |  |  |  |  |  |  |  |  |  |  |  |  |  |  |  |  | EC50 (read off the curve) [2]: ~20 ng/mL
B3 | 0.96 nM | 14.8% | 83.9% | 7.7% | 16 | 6.4% | 5 | no binding | no binding | 26% | 2.8 nM | 0.000427 s⁻¹ | 150000 M⁻¹ s⁻¹ | 14.3% | 28 | 38% | 9% | 
B4 | 2.17 nM | 24.6% | 3.9% | 5.6% | 4 | 5.4% | 2 | no binding | binds | 2% | 0.2 nM | 3.5e-05 s⁻¹ | 140000 M⁻¹ s⁻¹ | 81.8% | 9 | 20.9% | -1.5% | 
B5 | 0.62 nM | 1.2% | -4.8% | 10.1% | 26 | 6.4% | 4 |  |  | 2.1% | 10.7 nM | 0.0014 s⁻¹ | 130000 M⁻¹ s⁻¹ | 6% | 29 | 92.2% | 15.7% | binding result [18]: no binding
B6 |  |  |  |  |  |  |  |  | binds |  |  |  |  |  |  |  |  | binding result [19]: binds; binding result [20]: binds
